The values that follow come from patent US20260097113A1 (Pfizer, published 2026).

Changes are numbered by the printed parent chain.

Experiment [1] deals with RSV A + RSV B bivalent composition (RSV subtype A; RSV subtype B). Kind of experiment: AM14 Fab titration by SEC; composition of Table 17; Pre-lyo Prep 1, T0 (second value).
Experiment [2] has the same target. Kind of experiment: AM14 Fab titration by SEC; Target cycle; 3 M 2-8°C (second value).
The target is the same in experiment [3]. Briefly: AM14 Fab titration by SEC; Target cycle; T0.
Experiment [4] shares this target. Briefly: AM14 Fab titration by SEC; High-Slow 1 cycle; 1 M 40°C.
Experiment [5] has the same target. Kind of experiment: AM14 Fab titration by SEC; Target cycle; 3 M 2-8°C.
Experiment [6] has the same target. Briefly: AM14 Fab titration by SEC; composition of Table 17; Pre-lyo Prep 1, T0.
Experiment [7] has the same target. Briefly: AM14 Fab titration by SEC; Low-Fast cycle; 3 M 40°C (second value).
Experiment [8] has the same target. Briefly: AM14 Fab titration by SEC; High-Slow 2 cycle; T0 (second value).
Experiment [9] has as its target T1, RSV F protein of subtype A comprising a polypeptide of SEQ ID NO: 1 and a polypeptide of SEQ ID NO: 2 (RSV subtype A, UniProt P11209 137-513; P03420 26-109).
T1 construct: Stabilized prefusion F trimer made of three F2-F1 heterodimers; Produced recombinantly in CHO cells; also called RSV A; RSVA
T1 chain 1: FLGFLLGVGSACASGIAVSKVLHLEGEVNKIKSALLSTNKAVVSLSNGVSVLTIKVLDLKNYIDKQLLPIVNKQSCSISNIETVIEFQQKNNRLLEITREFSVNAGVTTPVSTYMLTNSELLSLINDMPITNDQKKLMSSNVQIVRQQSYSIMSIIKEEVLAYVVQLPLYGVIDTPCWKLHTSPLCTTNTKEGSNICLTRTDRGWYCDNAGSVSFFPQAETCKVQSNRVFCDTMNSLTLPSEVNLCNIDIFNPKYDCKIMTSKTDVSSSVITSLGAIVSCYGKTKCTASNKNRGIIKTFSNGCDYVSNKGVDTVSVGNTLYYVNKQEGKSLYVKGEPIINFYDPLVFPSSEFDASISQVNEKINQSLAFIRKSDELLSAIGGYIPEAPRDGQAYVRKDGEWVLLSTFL
T1 chain 2: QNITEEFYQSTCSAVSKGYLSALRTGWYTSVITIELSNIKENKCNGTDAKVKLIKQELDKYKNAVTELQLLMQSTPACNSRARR
Kind of experiment: AM14 ELISA; F6 (pH 7, 0 mM NaCl, 4.5% sucrose); 1 wk 5°C.

Experiment [10] concerns the target T1, RSV F protein of subtype A comprising a …. Briefly: AM14 ELISA; F18 (pH 7, 50 mM NaCl, 3% sucrose + 3% mannitol); 2 wk 5°C.
For experiment [11] the target is unchanged. Briefly: AM14 ELISA; F13 (pH 7, 100 mM NaCl, 4.5% sucrose); 2 wk 5°C.
The target of experiment [12] is T2, RSV F protein comprising a polypeptide of SEQ ID NO: 3 and a polypeptide of SEQ ID NO: 4 (RSV subtype B, UniProt O36634 137-513; O36634 26-109).
T2 construct: also called RSV B; RSVB
T2 chain 1: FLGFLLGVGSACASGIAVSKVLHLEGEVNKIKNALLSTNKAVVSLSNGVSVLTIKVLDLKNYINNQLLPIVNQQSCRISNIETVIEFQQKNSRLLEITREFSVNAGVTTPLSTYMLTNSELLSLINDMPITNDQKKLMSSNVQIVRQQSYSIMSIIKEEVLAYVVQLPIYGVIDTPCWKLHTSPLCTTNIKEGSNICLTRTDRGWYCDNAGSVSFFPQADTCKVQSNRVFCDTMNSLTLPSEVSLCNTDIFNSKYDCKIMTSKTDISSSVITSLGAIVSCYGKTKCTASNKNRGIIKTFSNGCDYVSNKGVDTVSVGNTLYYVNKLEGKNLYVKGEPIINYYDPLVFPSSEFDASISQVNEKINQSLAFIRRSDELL
T2 chain 2: T1 chain 2 with K17R, L20F, N42T, A49T, S74N, S80N
Briefly: AM14 prefusion assay relative to standard; RSV B 480 µg/mL, 2% sucrose + 4% mannitol; post-lyo T0.

For experiment [13], the target named is T1, RSV F protein of subtype A comprising a …. Briefly: AM14 ELISA; F12 (pH 8, 100 mM NaCl, 9.0% sucrose); 2 wk 25°C.
The target is the same in experiment [14]. Briefly: AM14 ELISA; F10 (pH 7, 50 mM NaCl, 4.5% sucrose); T0.
Experiment [15] shares this target. Kind of experiment: AM14 ELISA; F15 (pH 6, 0 mM NaCl, 9% sucrose); 1 wk 25°C.

As for AM14 Fab, the Prefusion Content (%) in experiment [1] came out at 84%; in [2], 70%; in experiment [3], 68%; in experiment [4], 51%; in experiment [5] it was 69%; in [6], 85%. For the same molecule, the results for the Prefusion Content (%) in [7] and in [8] were 66% and 73%, respectively.

B1: AM14 (trimeric prefusion specific antibody of the AM14 ELISA) (antibody, V domains shown)
VH: EVQLVESGGGVVQPGRSLRLSCAASGFSFSHYAMHWVRQAPGKGLEWVAVISYDGENTYYADSVKGRFSISRDNSKNTVSLQMNSLRPEDTALYYCARDRIVDDYYYYGMDVWGQGATVTVSS
VL: DIQMTQSPSSLSASVGDRVTITCQASQDIKKYLNWYHQKPGKVPELLMHDASNLETGVPSRFSGRGSGTDFTLTISSLQPEDIGTYYCQQYDNLPPLTFGGGTKVEIKR
notes: Antibody as used in the AM14 ELISA, detected with an HRP-labeled secondary antibody
On to B1, for which the “AM14 prefusion content (%), relative to standard” value in experiment [9] was determined as 101%; in [10] it was 85%; in experiment [11], 75%; in [12], 82%; in experiment [13], 55%; in experiment [14] it was 104%. For the same molecule, the “AM14 prefusion content (%), relative to standard” value in experiment [15] worked out at 99%.
